The record followed here is patent US20110123511.

The target in data set [1] is full-length free histone H3 (individual core histone).
Data set [2] has as its target peptide containing H3 residues 1-20.
Data set [3] deals with GST-fusion histone H3 peptide (residues 1-57), K27R mutant [GST: P08515].
In data set [4] the target is GST-fusion histone H3 peptide (residues 1-57), wild-type.
For data set [5], the target named is H3 peptide containing residues 15-30.

B1: recombinant wild-type vSET expressed in E. coli BL21 (protein)
chain: MFNDRVIVKKSPLGGYGVFARKSFEKGELVEECLCIVRHNDDWGTALEDYLFSRKNMSAMALGFGAIFNHSKDPNARHELTAGLKRMRIFTIKPIAIGEEITISYGDDYWLSRPRLTQN
B1: the histone methyltransferase activity entry in data set [1] is “confirming its activity for full-length free H3 and H3 within the nucleosome, but not other core histones”; in the data set with core histone H4, “confirming its activity for full-length free H3 and H3 within the nucleosome, but not other core histones”; with core histone H2B it was “confirming its activity for full-length free H3 and H3 within the nucleosome, but not other core histones”; in the data set with core histone H2A, “confirming its activity for full-length free H3 and H3 within the nucleosome, but not other core histones”. For the same protein, the “methylation activity with H3 peptides (14C-methyl-SAM)” value in data set [2] is recorded as “Like vSET, these viral SET proteins only methylated a H3 peptide containing residues 15-30 but not a peptide containing H3 residues 1-20”; in data set [5] it was “Like vSET, these viral SET proteins only methylated a H3 peptide containing residues 15-30 but not a peptide containing H3 residues 1-20”. The “methylation assay (methyl transfer from 14C-methyl-SAM)” value in data set [3] and in data set [4] was “The methylation assay showed that vSET was only active when H3 contained K27” in each case.
